According to article doi:10.1101/2025.11.05.686744 (bioRxiv, 2025):

What was measured:
[1] = target: Spindlin1 (residues 50-262) (human, UniProt Q9Y657 50-262); assay: NMR titration
[2] = target: Spindlin1^C96A/H252F (residues 50-262) (human, UniProt Q9Y657 50-262, C96A | H252F); assay: NMR titration
Spindlin1^C96A/H252F (residues 50-262), sequence (Q9Y657 50-262 C96A/H252F): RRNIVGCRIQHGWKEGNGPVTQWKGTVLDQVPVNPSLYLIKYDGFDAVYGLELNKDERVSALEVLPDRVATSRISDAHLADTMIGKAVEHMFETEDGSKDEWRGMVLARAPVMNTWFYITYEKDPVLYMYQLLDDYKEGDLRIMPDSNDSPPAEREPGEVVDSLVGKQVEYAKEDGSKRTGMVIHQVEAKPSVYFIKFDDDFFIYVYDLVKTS

Spindlin1 (residues 50-262), sequence (Q9Y657 50-262): as the sequence (Q9Y657 50-262 C96A/H252F) above, with A47C, F203H counted along it

B1: HBx_(1-120) protein genotype D (Hepatitis B virus protein X, short isoform) (domain or fragment)
chain: MAARLCCQLDPARDVLCLRPVGAESCGRPFSGSLGTLSSPSPSAVPTDHGAHLSLRGLPVCAFSSAGPCALRFTSARRMETTVNAHQILPKVLHKRTLGLSAMSTTDLEAYFKDCLFKDW
Q: Does B1 bind [1]?
A: Result: binds

B2: HBx_(1-120)^C61A/C69A (domain or fragment, Hepatitis B virus genotype D, UniProt P03165 1-120, looked up)
chain: MAARLCCQLDPARDVLCLRPVGAESCGRPFSGSLGTLSSPSPSAVPTDHGAHLSLRGLPVAAFSSAGPAALRFTSARRMETTVNAHQILPKVLHKRTLGLSAMSTTDLEAYFKDCLFKDW
Q: Does B2 bind [2]?
A: Result: binds
